Reference: PMC5643146

Molecular target: xTCF1
Assay: co-IP; binding competition: HEK293T cells transfected with flag-TCF and β-cat1 or β-cat4 alone, together, or with β-cat2 as control; IP with FLAG-M2 beads; precipitated β-catenins quantified and normalised against total β-catenins in whole cell lysates

Substance	relative binding to TCF, β-cat1 alone and β-cat1+β-cat2 co-transfected compared (negative control)	relative binding to TCF, β-cat1 alone and β-cat1+β-cat4 co-transfected compared	relative binding to TCF, β-cat4 alone and β-cat1+β-cat4 co-transfected compared	relative binding to TCF, β-cat4 alone and β-cat4+β-cat2 co-transfected compared (negative control)
Smed-β-catenin1 (natural protein)	1.11	0.63		
Smed-β-catenin4 (natural protein)			0.51	0.91
